Measured values published in patent publication US20230203185A1 (ECO ANIMAL HEALTH, published 2023).

T1: pCD163-SRCR1-9-huFc (porcine, UniProt Q2VL90 47-1028, limits assumed)
T1 construct: also called pCD163:SRCR1-9-Fc; pCD163SRCR1-9-Fc; not shown: human Fc (huFc)
T1 sequence: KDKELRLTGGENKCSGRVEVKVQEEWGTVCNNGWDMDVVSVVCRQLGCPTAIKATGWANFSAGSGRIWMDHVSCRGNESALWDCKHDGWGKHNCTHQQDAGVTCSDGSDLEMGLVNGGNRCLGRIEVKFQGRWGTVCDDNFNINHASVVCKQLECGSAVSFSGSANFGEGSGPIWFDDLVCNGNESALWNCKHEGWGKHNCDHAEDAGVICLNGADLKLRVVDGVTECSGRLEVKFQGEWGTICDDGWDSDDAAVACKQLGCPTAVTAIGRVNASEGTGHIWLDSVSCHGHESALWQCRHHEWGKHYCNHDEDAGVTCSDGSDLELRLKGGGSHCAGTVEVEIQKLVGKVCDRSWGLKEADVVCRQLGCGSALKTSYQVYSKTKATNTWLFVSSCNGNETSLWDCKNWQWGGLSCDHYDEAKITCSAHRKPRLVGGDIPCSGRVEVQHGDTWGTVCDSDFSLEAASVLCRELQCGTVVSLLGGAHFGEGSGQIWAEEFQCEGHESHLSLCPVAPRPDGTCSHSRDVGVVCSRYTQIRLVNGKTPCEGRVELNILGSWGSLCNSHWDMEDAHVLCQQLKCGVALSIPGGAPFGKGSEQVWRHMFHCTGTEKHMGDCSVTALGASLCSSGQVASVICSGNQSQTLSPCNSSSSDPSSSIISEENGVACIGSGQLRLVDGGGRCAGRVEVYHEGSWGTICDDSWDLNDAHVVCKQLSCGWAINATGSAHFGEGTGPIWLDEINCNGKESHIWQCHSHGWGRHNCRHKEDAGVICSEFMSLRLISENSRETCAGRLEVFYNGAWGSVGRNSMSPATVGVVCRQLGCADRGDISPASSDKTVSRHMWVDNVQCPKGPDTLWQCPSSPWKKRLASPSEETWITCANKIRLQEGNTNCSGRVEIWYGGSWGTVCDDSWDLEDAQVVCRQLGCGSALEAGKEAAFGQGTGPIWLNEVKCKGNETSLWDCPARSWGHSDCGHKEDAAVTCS


Columns and labels:
[1] = biological target: T2, pCD163-SRCR4-7-huFc (porcine, UniProt Q2VL90 372-818, limits assumed); experiment: SPR (Biacore 3000), antigen amine-coupled on CM5, VHH injected, pH 7.4
T2 construct: also called pCD163:SRCR4-7-Fc; pCD163-SRCR4-7-Fc; not shown: human Fc (huFc)
Description: To assess the affinity of selected purified clones to pCD163, pCD163-SRCR1-9-huFc or pCD163-SRCR4-7-huFc proteins were coated by amine coupling on a CM5 sensor ship (GE Healthcare). Surface plasmon resonance (SPR) (Biacore 3000, GE Healthcare) was used to determine the binding kinetics of selected single domain antibodies at pH7.4. Approximately 2000 RU of pCD163-SRCR1-9-huFc or pCD163-SRCR4-7-huFc, proteins at 20 or 30 µg/ml in Acetate buffer pH 5.0 or pH 5.5 were immobilized onto a CM5 chip using the standard amine coupling procedure.
1x HBS-EP pH 7.4, were utilized as a running buffer during binding kinetic measurements. Purified VHH were injected at 3-fold dilution (300 nM; 100 nM; 33 nM; 11 nM; 3.7 nM; 1.2 nM; 0.4 nM; 0 nM), for 120 s, at a flow rate of 30 µl/min. RU levels were restored to base levels after regeneration with 10 µl of 10 mM NaOH / 1 M NaCl and 10 µl of 10 mM Glycine pH 1.5 between samples. Fitting 1:1 binding with mass transfer was applied to the set sample curves using the simultaneous fitting option of the BIAevaluation software to calculate the kinetic constants of the antibody-antigen interactions including association rate (ka), dissociation rate (kd) and affinity (KD). Curves were removed from the fitting after visual examination of the residuals and considering the value of Chi2: a minimum of 4 curves were considered for the simultaneous fitting.

[2] = biological target: T1, pCD163-SRCR1-9-huFc; experiment: ELISA, periplasmic extract on coated antigen
[3] = biological target: T2, pCD163-SRCR4-7-huFc; experiment: ELISA, periplasmic extract on coated antigen

Binder	Kd [1]	koff [1]	kon [1]	O.D. 450 [2]	O.D. 450 [3]
VHH 012 (2C07) (VHH, Llama single domain antibody; also called 41(#12); VHCDR3 41(#12); not shown: tags: c-myc tag in periplasmic extract (ELISA, FACS); FLAG and His tags in purified VHH (SPR, infection assays)) VHH: QLQLVESGGGLVQAGGSLRLSCVASGRTFSRYAMGWFRQAPGKEREFVAAIAWSTGSTYYANSVKGRFAISGDNAKNTVYLQMNSLKPEDTAVYYCAAETRYCSGFGCLDPRTYGSWGQGTQVTVSS	1.51 nM	0.00426 s⁻¹	2.83e+06 M⁻¹ s⁻¹	0.535 O.D. 450	3.14 O.D. 450
VHH 002 (1B04) (VHH, Llama single domain antibody; also called 76(#2); VHCDR3 76(#2); not shown: tags: c-myc tag in periplasmic extract (ELISA, FACS); FLAG and His tags in purified VHH (SPR, infection assays)) VHH: QVQLVESGGGLVQAGGSLRLSCAASGLTFVTYSMGWFRQAPGKEREFVAAHRWSGSAYYAEHADSVEGRFTISRDYAKNMLYLQMNSLKHEDTAVYYCAAGVGSAAQYRYWGRGTQVTVSS	19 nM	0.0149 s⁻¹	787000 M⁻¹ s⁻¹	0.235 O.D. 450	2.39 O.D. 450
VHH 016 (2H11) (VHH, Llama single domain antibody; also called 77(#16); VHCDR3 77(#16); not shown: tags: c-myc tag in periplasmic extract (ELISA, FACS); FLAG and His tags in purified VHH (SPR, infection assays)) VHH: EVQLVESGGGLVQAGGSLRLSCAASGRTFAPGSMGWFRQAPGKEREFVAAHRWSGSAYYADYADSVEGRFTISRDYAKNMVYLQMNSLKPGDTAVYYCAAGVGSAAQYTYWGRGTQVTVSS	30 nM	0.00674 s⁻¹	224000 M⁻¹ s⁻¹	0.263 O.D. 450	4.15 O.D. 450
VHH 008 (1H01) (VHH, Llama single domain antibody; also called 78(#8); VHCDR3 78(#8); not shown: tags: c-myc tag in periplasmic extract (ELISA, FACS); FLAG and His tags in purified VHH (SPR, infection assays)) VHH: QVQLVESGGGLVQAGGSLRLSCAASGRTFGTYSMGWFRQAPGKEREFVAAHRWSGSAYYAEHADSVEGRFTISRDYAKNMLYLQMNSLKHEDTAVYYCAAGVGSEAQYRYWGRGTQVTVSS	34.7 nM	0.00542 s⁻¹	156000 M⁻¹ s⁻¹	0.22 O.D. 450	2.65 O.D. 450
VHH 011 (2B06) (VHH, Llama single domain antibody; also called 57(#11); VHCDR3 57(#11); not shown: tags: c-myc tag in periplasmic extract (ELISA, FACS); FLAG and His tags in purified VHH (SPR, infection assays)) VHH: EVQLVESGGGLVQAGGSLRLSCAASGRTLSVYGTGWFRQAPGKEREFVAGISGTTGSTLYADSVKGRFTISRDNAKNTVYLQMNSLKSEDTALYYCAAGGRVYITTSSWAYWGQGTQVTVSS	34.5 nM	0.0151 s⁻¹	437000 M⁻¹ s⁻¹	0.106 O.D. 450	0.288 O.D. 450
VHH 001 (1B02) (VHH, Llama single domain antibody; also called 144(#1); VHCDR3 144(#1); not shown: tags: c-myc tag in periplasmic extract (ELISA, FACS); FLAG and His tags in purified VHH (SPR, infection assays)) VHH: EVQLVESGGGLVQAGGSLSLSCAASGGTLAMYAMSWFRQAPGKDRKFVAAINTSGRYSRYADSVKGRFTISRDNAKNTATLQMNSLEPEDTAVYYCAATDKGNWALAMSYDYWGQGTQVTVSS	9.26 nM	0.0227 s⁻¹	2.46e+06 M⁻¹ s⁻¹	0.109 O.D. 450	0.416 O.D. 450
VHH 023 (4E10) (VHH, Llama single domain antibody; also called 70(#23); VHCDR3 70(#23); not shown: tags: c-myc tag in periplasmic extract (ELISA, FACS); FLAG and His tags in purified VHH (SPR, infection assays)) VHH: QVQLVESGGGLVQAGGSLRLSCVASSRTSSTYAMGWFRQGPGKERDFVAIISFGGTFYADSVKGRFTISRDNAKNTVYLQMNSLKPEDTAVYYCAAGRTLSKRADSYASWGQGTQVTVSS	1.52 nM	0.00755 s⁻¹	4.96e+06 M⁻¹ s⁻¹	0.577 O.D. 450	4.1 O.D. 450
VHH 015 (2G01) (VHH, Llama single domain antibody; also called 150(#15); VHCDR3 150(#15); not shown: tags: c-myc tag in periplasmic extract (ELISA, FACS); FLAG and His tags in purified VHH (SPR, infection assays)) VHH: QVQLVESGGGLVQAGDTLRLSCTASGRTFSSYSMGWFRQAPGKEREFVAAITWNGYITNYADSVKGRFTISRDNTKNTVFLQMNSLKPEETAVYYCAATTFSTTSPISRTYNYWGPGTQVTVSS	8.01 nM	0.00442 s⁻¹	551000 M⁻¹ s⁻¹	1.18 O.D. 450	4.37 O.D. 450
VHH 017 (3D03) (VHH, Llama single domain antibody; also called 29(#17); VHCDR3 29(#17); not shown: tags: c-myc tag in periplasmic extract (ELISA, FACS); FLAG and His tags in purified VHH (SPR, infection assays)) VHH: QLQLVESGGGLVQPGGSLRLSCAASGFTLDDYTIGWFRQAPGKEREGVSCINSITSNTYYADSVKGRFTISRDNAKNTVYLQMNSLTAEDTAIYYCAADSGLFSGSSCLKYRAMRFGSWGQGTQVTVSS	22.6 nM	0.00345 s⁻¹	153000 M⁻¹ s⁻¹	0.137 O.D. 450	0.116 O.D. 450
VHH 018 (3E01) (VHH, Llama single domain antibody; also called 49(#18); VHCDR3 49(#18); not shown: tags: c-myc tag in periplasmic extract (ELISA, FACS); FLAG and His tags in purified VHH (SPR, infection assays)) VHH: QVQLQESGGGLVQVGGSLRLSCVASGRAPSRYVMGWFRQAPGQEREFVAGIAWSGRAPYADSVKGRSTISRDNAKNTVYLQMNSLKPEDTGVYYCAGGEGAIRWTTLDAYDYWGQGTQVTVSS	42 nM	0.0121 s⁻¹	288000 M⁻¹ s⁻¹	1.03 O.D. 450	0.938 O.D. 450
VHH 020 (3H11) (VHH, Llama single domain antibody; also called 48(#20); VHCDR3 48(#20); not shown: tags: c-myc tag in periplasmic extract (ELISA, FACS); FLAG and His tags in purified VHH (SPR, infection assays)) VHH: QVQLQESGGGLVQVGGSLRLSCVASGRTPSRYVMGWFRQAPGQEREFVAGIAWSGRAPYADSVKGRFVISRDSAKNTVYLQMNSLKSEDTGVYYCAGGEGAILWTTPGAYNYWGQGTQVTVSS	18.2 nM	0.00843 s⁻¹	462000 M⁻¹ s⁻¹	2.93 O.D. 450	3.36 O.D. 450
VHH 019 (3E11) (VHH, Llama single domain antibody; also called 47(#19); VHCDR3 47(#19); not shown: tags: c-myc tag in periplasmic extract (ELISA, FACS); FLAG and His tags in purified VHH (SPR, infection assays)) VHH: QVQLQESGGGLVQVGSSLRLSCVTSGRTPSRYVMGWFRQAPGQEREFVAAISWSGRAPYADSVKGRFTISRDNAKNTVYLQMNSLKPEDTGVYYCAGGEGAIKWTTLDAYDYWGQGTQVTVSS	21.1 nM	0.0103 s⁻¹	487000 M⁻¹ s⁻¹	2.48 O.D. 450	2.43 O.D. 450
